{
  "source": "FireProtDB (doi:10.1021/bi051013y)",
  "proteins": {"B1": {"name": "wild type, Q56QW9 (protein)", "chain": "AYAQWVIILIHNVGQQNVKIKNLNASWGKLYADGDKDTEVPASKYEGMVIAPGDQVQINACGREDAAEGTTGTFDLVDPNDSDKQVRHISWDCPWGTKANSWVVGGSNSKWMIEYTGQNLDSGALGTITVNTLKIGN"}},
  "conditions": "Pleurotus ostreatus, Thermal, whole UniProt chain shown",
  "key": {"[1]": {"conditions": "pH 6, 25 °C, Absorbance, Carbonate 10 mM, reversible: yes"}, "[2]": {"conditions": "pH 6, Absorbance, Carbonate 10 mM, reversible: yes"}, "[3]": {"conditions": "pH 6, absorbance, HEPES, transition: 2, reversible: YES"}, "[4]": {"conditions": "pH 8, 25 °C, Absorbance, HEPES 10 mM, reversible: yes"}, "[5]": {"conditions": "pH 8, Absorbance, HEPES 10 mM, reversible: yes"}, "[6]": {"conditions": "pH 8, absorbance, HEPES, transition: 2, reversible: YES"}, "[7]": {"conditions": "pH 9, Absorbance, Borate 10 mM, reversible: yes"}, "[8]": {"conditions": "pH 9, absorbance, HEPES, transition: 2, reversible: YES"}, "[9]": {"conditions": "pH 10, 25 °C, Absorbance, Carbonate 10 mM, reversible: yes"}, "[10]": {"conditions": "pH 10, Absorbance, Carbonate 10 mM, reversible: yes"}, "[11]": {"conditions": "pH 10, absorbance, HEPES, transition: 2, reversible: YES"}, "[12]": {"conditions": "pH 11, 25 °C, Absorbance, Carbonate 10 mM, reversible: yes"}, "[13]": {"conditions": "pH 11, Absorbance, Carbonate 10 mM, reversible: yes"}},
  "data": [
    {"protein": "B1", "values": [
      {"measurement": "heat capacity change of unfolding", "setting": "[1]", "value": 2.87, "unit": "kcal/mol/K"},
      {"measurement": "unfolding enthalpy (van 't Hoff)", "setting": "[1]", "value": 62.9, "unit": "kcal/mol"},
      {"measurement": "unfolding free energy", "setting": "[1]", "value": 7.27, "unit": "kcal/mol"},
      {"measurement": "Tm", "setting": "[2]", "value": 48.6, "unit": "°C"},
      {"measurement": "unfolding enthalpy (van 't Hoff)", "setting": "[2]", "value": 130, "unit": "kcal/mol"},
      {"measurement": "Tm", "setting": "[3]", "value": 48.6, "unit": "°C"},
      {"measurement": "unfolding enthalpy (van 't Hoff)", "setting": "[3]", "value": 130, "unit": "kcal/mol"},
      {"measurement": "unfolding enthalpy (calorimetric)", "setting": "pH 6, absorbance, HEPES", "value": 62.9, "unit": "kcal/mol"},
      {"measurement": "unfolding free energy", "setting": "pH 6, absorbance, HEPES", "value": 7.27, "unit": "kcal/mol"},
      {"measurement": "Tm", "setting": "pH 7, absorbance, HEPES, transition: 3, reversible: YES", "value": 54.6, "unit": "°C"},
      {"measurement": "heat capacity change of unfolding", "setting": "[4]", "value": 2.87, "unit": "kcal/mol/K"},
      {"measurement": "unfolding enthalpy (van 't Hoff)", "setting": "[4]", "value": 64.5, "unit": "kcal/mol"},
      {"measurement": "unfolding free energy", "setting": "[4]", "value": 8.94, "unit": "kcal/mol"},
      {"measurement": "Tm", "setting": "[5]", "value": 51.2, "unit": "°C"},
      {"measurement": "unfolding enthalpy (van 't Hoff)", "setting": "[5]", "value": 140, "unit": "kcal/mol"},
      {"measurement": "Tm", "setting": "[6]", "value": 51.2, "unit": "°C"},
      {"measurement": "unfolding enthalpy (van 't Hoff)", "setting": "[6]", "value": 140, "unit": "kcal/mol"},
      {"measurement": "unfolding enthalpy (calorimetric)", "setting": "pH 8, absorbance, HEPES", "value": 64.5, "unit": "kcal/mol"},
      {"measurement": "unfolding free energy", "setting": "pH 8, absorbance, HEPES", "value": 8.94, "unit": "kcal/mol"},
      {"measurement": "Tm", "setting": "[7]", "value": 47.2, "unit": "°C"},
      {"measurement": "unfolding enthalpy (van 't Hoff)", "setting": "[7]", "value": 130, "unit": "kcal/mol"},
      {"measurement": "Tm", "setting": "[8]", "value": 47.2, "unit": "°C"},
      {"measurement": "unfolding enthalpy (van 't Hoff)", "setting": "[8]", "value": 130, "unit": "kcal/mol"},
      {"measurement": "unfolding enthalpy (calorimetric)", "setting": "pH 9, absorbance, HEPES", "value": 66.2, "unit": "kcal/mol"},
      {"measurement": "unfolding free energy", "setting": "pH 9, absorbance, HEPES", "value": 7.05, "unit": "kcal/mol"},
      {"measurement": "heat capacity change of unfolding", "setting": "[9]", "value": 2.87, "unit": "kcal/mol/K"},
      {"measurement": "unfolding enthalpy (van 't Hoff)", "setting": "[9]", "value": 60.5, "unit": "kcal/mol"},
      {"measurement": "unfolding free energy", "setting": "[9]", "value": 3.47, "unit": "kcal/mol"},
      {"measurement": "Tm", "setting": "[10]", "value": 39.4, "unit": "°C"},
      {"measurement": "unfolding enthalpy (van 't Hoff)", "setting": "[10]", "value": 102, "unit": "kcal/mol"},
      {"measurement": "Tm", "setting": "[11]", "value": 39.4, "unit": "°C"},
      {"measurement": "unfolding enthalpy (van 't Hoff)", "setting": "[11]", "value": 102, "unit": "kcal/mol"},
      {"measurement": "unfolding enthalpy (calorimetric)", "setting": "pH 10, absorbance, HEPES", "value": 60.5, "unit": "kcal/mol"},
      {"measurement": "unfolding free energy", "setting": "pH 10, absorbance, HEPES", "value": 3.47, "unit": "kcal/mol"},
      {"measurement": "heat capacity change of unfolding", "setting": "[12]", "value": 2.87, "unit": "kcal/mol/K"},
      {"measurement": "unfolding enthalpy (van 't Hoff)", "setting": "[12]", "value": 66.4, "unit": "kcal/mol"},
      {"measurement": "unfolding free energy", "setting": "[12]", "value": 2.32, "unit": "kcal/mol"},
      {"measurement": "Tm", "setting": "[13]", "value": 34.6, "unit": "°C"},
      {"measurement": "unfolding enthalpy (van 't Hoff)", "setting": "[13]", "value": 93.9, "unit": "kcal/mol"},
      {"measurement": "unfolding enthalpy (calorimetric)", "setting": "pH 11, absorbance, HEPES", "value": 66.4, "unit": "kcal/mol"},
      {"measurement": "unfolding free energy", "setting": "pH 11, absorbance, HEPES", "value": 2.32, "unit": "kcal/mol"}
    ]}
  ]
}
